The supplement of paper PMC9112550, “Optimization of the antimicrobial peptide Bac7 by deep mutational scanning” (BMC Biology, 2022)

Tested on: Escherichia coli TOP10
Assay: shrunken log2 fold change of peptide-encoding DNA abundance (4.5 h post-induction vs induction); higher = less antimicrobial activity (less host growth inhibition)
Conditions: time post-induction: 4.5 h; library: site-saturation at positions 5, 18, 19, 20
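Further: peptides expressed intracellularly from a pBAD plasmid library in pooled LB shake-flask culture, induced with 0.3% L-arabinose, DNA abundance read by NGS, three biological replicates, DESeq2 with apeglm shrinkage.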

Sequence | shrunken log2 fold change
RRIRSRPPRLPRPRPRPNHLPRP | -0.814
RRIRPRPPRLPRPRPRPNVWPRP | 0.183
RRIRTRPPRLPRPRPRPWFPPRP | -0.735
RRIRYRPPRLPRPRPRPNVQPRP | -0.0298
RRIRHRPPRLPRPRPRPAHYPRP | -0.139
RRIRFRPPRLPRPRPRPDYPPRP | -0.111
RRIRMRPPRLPRPRPRPGCEPRP | 1.87
RRIRLRPPRLPRPRPRPCPAPRP | -0.00808
RRIRKRPPRLPRPRPRPTINPRP | -0.184
RRIRVRPPRLPRPRPRPCETPRP | 0.0572
RRIRCRPPRLPRPRPRPCLVPRP | -0.463
RRIRERPPRLPRPRPRPINGPRP | 0.0683
RRIRNRPPRLPRPRPRPDWFPRP | -0.0803
RRIRRRPPRLPRPRPRPRKWPRP | 0.319
RRIRCRPPRLPRPRPRPPMEPRP | 0.245
RRIRARPPRLPRPRPRPAAHPRP | 0.478
RRIRLRPPRLPRPRPRPSKCPRP | -0.0487
RRIRFRPPRLPRPRPRPMVFPRP | -0.0469
RRIRHRPPRLPRPRPRPMLQPRP | -0.0377
RRIRARPPRLPRPRPRPCNPPRP | -0.0307
RRIRQRPPRLPRPRPRPFADPRP | -0.0142
RRIRARPPRLPRPRPRPIMHPRP | -0.171
RRIRSRPPRLPRPRPRPMVIPRP | -0.0364
RRIRARPPRLPRPRPRPSAYPRP | 0.0396
RRIRSRPPRLPRPRPRPCFLPRP | -0.642

Sequence | shrunken log2 fold change
RRIRNRPPRLPRPRPRPISPPRP | -0.13
RRIRMRPPRLPRPRPRPCHRPRP | 0.00646
RRIRVRPPRLPRPRPRPFFKPRP | 0.0447
RRIRPRPPRLPRPRPRPNKSPRP | 0.408
RRIRTRPPRLPRPRPRPFISPRP | -0.0743
RRIRLRPPRLPRPRPRPGTVPRP | -0.0516
RRIRLRPPRLPRPRPRPPRLPRP | 0.46
RRIRVRPPRLPRPRPRPSWRPRP | -0.0696
RRIRFRPPRLPRPRPRPLMLPRP | -0.282
RRIRARPPRLPRPRPRPFPPPRP | 0.332
RRIRGRPPRLPRPRPRPYLPPRP | -0.204
RRIRCRPPRLPRPRPRPTETPRP | -0.0479
RRIRSRPPRLPRPRPRPWSVPRP | -0.305
RRIRRRPPRLPRPRPRPWHEPRP | 0.041
RRIRKRPPRLPRPRPRPMAPPRP | 0.0811
RRIRCRPPRLPRPRPRPQCEPRP | -0.128
RRIRMRPPRLPRPRPRPLCHPRP | 0.061
RRIRSRPPRLPRPRPRPAENPRP | 0.151
RRIRHRPPRLPRPRPRPKDWPRP | 0.207
RRIRGRPPRLPRPRPRPVIVPRP | 0.626
RRIRVRPPRLPRPRPRPANRPRP | -0.179
RRIRSRPPRLPRPRPRPLPVPRP | 0.0687
RRIRQRPPRLPRPRPRPIVSPRP | -0.0135
RRIRDRPPRLPRPRPRPRNFPRP | 0.0881
RRIRIRPPRLPRPRPRPKMKPRP | -0.457

Sequence | shrunken log2 fold change
RRIRTRPPRLPRPRPRPNGQPRP | 0.149
RRIRGRPPRLPRPRPRPRTLPRP | 0.477
RRIRLRPPRLPRPRPRPIMPPRP | -0.459
RRIRWRPPRLPRPRPRPAKIPRP | 0.132
RRIRQRPPRLPRPRPRPASKPRP | 0.0503
RRIRCRPPRLPRPRPRPQSTPRP | -0.673
RRIRGRPPRLPRPRPRPEWDPRP | 1.56
RRIRPRPPRLPRPRPRPDCRPRP | -0.0347
RRIRNRPPRLPRPRPRPYPNPRP | -0.3
RRIRTRPPRLPRPRPRPIPSPRP | -0.236
RRIRYRPPRLPRPRPRPFDFPRP | -0.409
RRIRVRPPRLPRPRPRPHSYPRP | -0.262
RRIRLRPPRLPRPRPRPENMPRP | -0.4
RRIRQRPPRLPRPRPRPNYYPRP | -0.611
RRIRSRPPRLPRPRPRPEYQPRP | 0.0227
RRIRARPPRLPRPRPRPDEEPRP | 0.901
RRIRTRPPRLPRPRPRPLSHPRP | -0.833
RRIRMRPPRLPRPRPRPAPLPRP | 0.541
RRIRERPPRLPRPRPRPKCSPRP | -0.0163
RRIRHRPPRLPRPRPRPPGMPRP | 0.0769
RRIRERPPRLPRPRPRPAHWPRP | 0.339
RRIRNRPPRLPRPRPRPPEIPRP | -0.169
RRIRNRPPRLPRPRPRPSAVPRP | -0.193
RRIRHRPPRLPRPRPRPFTKPRP | 0.009
RRIRWRPPRLPRPRPRPNVKPRP | -0.278

Sequence | shrunken log2 fold change
RRIRMRPPRLPRPRPRPHMLPRP | -0.245
RRIRERPPRLPRPRPRPCYTPRP | -0.0917
RRIRFRPPRLPRPRPRPSTWPRP | -0.000934
RRIRNRPPRLPRPRPRPWHVPRP | 0.0188
RRIRLRPPRLPRPRPRPSMQPRP | -0.205
RRIRRRPPRLPRPRPRPHDVPRP | 0.0619
RRIRCRPPRLPRPRPRPTVCPRP | -0.0924
RRIRGRPPRLPRPRPRPQYAPRP | 0.285
RRIRERPPRLPRPRPRPTKRPRP | -0.176
RRIRRRPPRLPRPRPRPGIFPRP | -0.174
RRIRYRPPRLPRPRPRPQILPRP | -0.0395
RRIRMRPPRLPRPRPRPRDNPRP | 0.455
RRIRTRPPRLPRPRPRPKNAPRP | 0.0264
RRIRVRPPRLPRPRPRPDFDPRP | 0.0753
RRIRWRPPRLPRPRPRPFKQPRP | -0.104
RRIRFRPPRLPRPRPRPASMPRP | -0.146
RRIRTRPPRLPRPRPRPKCHPRP | -0.0989
RRIRHRPPRLPRPRPRPLPDPRP | -0.299
RRIRTRPPRLPRPRPRPKDKPRP | -0.341
RRIRWRPPRLPRPRPRPPVDPRP | 0.494
RRIRARPPRLPRPRPRPHYEPRP | -0.234
RRIRARPPRLPRPRPRPMTDPRP | -0.414
RRIRTRPPRLPRPRPRPWLPPRP | -0.164
RRIRDRPPRLPRPRPRPWKWPRP | 0.0155
RRIRVRPPRLPRPRPRPFAKPRP | -0.307

Sequence | shrunken log2 fold change
RRIRDRPPRLPRPRPRPVDMPRP | 0.0154
RRIRQRPPRLPRPRPRPWNQPRP | -0.0236
RRIRYRPPRLPRPRPRPLYIPRP | -0.999
RRIRERPPRLPRPRPRPCGSPRP | 0.0206
RRIRVRPPRLPRPRPRPSRCPRP | -0.101
RRIRKRPPRLPRPRPRPFAKPRP | 0.0238
RRIRQRPPRLPRPRPRPLCRPRP | -0.272
RRIRNRPPRLPRPRPRPKKEPRP | 0.0493
RRIRSRPPRLPRPRPRPDQCPRP | -0.209
RRIRSRPPRLPRPRPRPCFFPRP | -0.248
RRIRGRPPRLPRPRPRPWNEPRP | -0.14
RRIRGRPPRLPRPRPRPSFQPRP | 0.198
RRIRLRPPRLPRPRPRPSRGPRP | 0.0578
RRIRLRPPRLPRPRPRPHLHPRP | -0.424
RRIRCRPPRLPRPRPRPQIEPRP | -0.335
RRIRARPPRLPRPRPRPFIYPRP | -0.264
RRIRPRPPRLPRPRPRPDYFPRP | -0.503
RRIRTRPPRLPRPRPRPWFRPRP | -0.128
RRIRNRPPRLPRPRPRPIMCPRP | -0.148
RRIRARPPRLPRPRPRPLMKPRP | 0.106
RRIRWRPPRLPRPRPRPKLVPRP | 0.00348
RRIRERPPRLPRPRPRPSETPRP | -0.428
RRIRTRPPRLPRPRPRPHPKPRP | -0.0492
RRIRVRPPRLPRPRPRPCDSPRP | -0.0445
RRIRSRPPRLPRPRPRPKRRPRP | 0.33

Sequence | shrunken log2 fold change
RRIRDRPPRLPRPRPRPKYHPRP | -0.412
RRIRVRPPRLPRPRPRPFNSPRP | -0.00973
RRIRMRPPRLPRPRPRPHKCPRP | 0.0429
RRIRTRPPRLPRPRPRPKMDPRP | 0.0289
RRIRCRPPRLPRPRPRPLVVPRP | -0.347
RRIRGRPPRLPRPRPRPYDHPRP | -0.181
RRIRWRPPRLPRPRPRPLDSPRP | 0.0674
RRIRTRPPRLPRPRPRPMPHPRP | 0.182
RRIRCRPPRLPRPRPRPWEIPRP | 0.0501
RRIRPRPPRLPRPRPRPQLHPRP | -0.0604
RRIRWRPPRLPRPRPRPDTPPRP | 0.126
RRIRLRPPRLPRPRPRPKLVPRP | -0.0181
RRIRNRPPRLPRPRPRPDPRPRP | 0.562
RRIRPRPPRLPRPRPRPWDEPRP | -0.151
RRIRWRPPRLPRPRPRPPCIPRP | 0.0939
RRIRPRPPRLPRPRPRPMVYPRP | -0.228
RRIRPRPPRLPRPRPRPIMVPRP | -0.158
RRIRGRPPRLPRPRPRPYDGPRP | -0.387
RRIRFRPPRLPRPRPRPEQAPRP | -0.0421
RRIRMRPPRLPRPRPRPHVIPRP | 0.00402
RRIRPRPPRLPRPRPRPRYKPRP | -0.269
RRIRFRPPRLPRPRPRPRWWPRP | 0.34
RRIRSRPPRLPRPRPRPNPGPRP | -0.17
RRIRSRPPRLPRPRPRPWDHPRP | -0.143
RRIRARPPRLPRPRPRPTFVPRP | 0.203
